Laboratory results published in the supplement of paper PMC10724198.
± gives the standard deviation of the averaged measurements.

Test system: Saccharomyces cerevisiae
Test: protein stability index of tFT-peptide fusion (C-terminal peptide) (PSI (0-1 scale)); higher = more stable (slower turnover)
Conditions: temperature: 30 C
Experimental: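 MPS profiling in S. cerevisiae of the yeast C-terminome library: the last 12 aa of each annotated ORF are fused to the C-terminus of a sfGFP-mCherry timer, after a GGGS linker. Cells are FACS-sorted into 8 mCherry/sfGFP bins and deep-sequenced. PSI runs from 0 (unstable) to 1 (stable); wild type and das1Δ backgrounds, two technical replicates each.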

[1] = genetic background: das1 deletion

| Sequence | protein stability index [1] | protein stability index (genetic background: wild type) |
| --- | --- | --- |
| KNLWMRENEITI [HES1 C-terminal 12 aa] | 0.711 ± 0.059 | 0.71 ± 0.018 |
| SQAGLMSNEEVL [CCC2 C-terminal 12 aa] | 0.69664 ± 0.00011 | 0.699 ± 0.022 |
| KAELDRYKRENQ [SEM1 C-terminal 12 aa] | 0.7052 ± 0.0058 | 0.709 ± 0.049 |
| SAQRDRRYRKRN [RPS17B C-terminal 12 aa] | 0.721 ± 0.049 | 0.649 ± 0.018 |
| KCQTKHTFTGLI [YGR269W C-terminal 12 aa] | 0.695 ± 0.0072 | 0.723 ± 0.021 |
| SRFEVACEQKAA [BSC2 C-terminal 12 aa] | 0.579 ± 0.019 | 0.592 ± 0.019 |
| ENISSPLGKKSR [PSY4 C-terminal 12 aa] | 0.691 ± 0.0098 | 0.706 ± 0.0047 |
| LNEYSKDPPGNN [RAD18 C-terminal 12 aa] | 0.704 ± 0.018 | 0.707 ± 0.021 |
| VILMVDFTLVGP [YDR262W C-terminal 12 aa] | 0.429 ± 0.023 | 0.426 ± 0.0078 |
| IRSRGRLKEVYF [SLX5 C-terminal 12 aa] | 0.732 ± 0.026 | 0.68566 ± 0.00055 |
| KKHRVGMPKEDK [DIC1 C-terminal 12 aa] | 0.67 ± 0.013 | 0.69 ± 0.031 |
| SGPSAMTKFGPR [ARP2 C-terminal 12 aa] | 0.69 ± 0.032 | 0.6842 ± 0.0042 |
| NLDGQIHYLQRL [GAL7 C-terminal 12 aa] | 0.706 ± 0.012 | 0.761 ± 0.091 |
| ELPGVAFLSEKK [PGK1 C-terminal 12 aa] | 0.728 ± 0.016 | 0.67 ± 0.0094 |
| RLSMLRPPSSSS [RSC2 C-terminal 12 aa] | 0.7185 ± 0.0066 | 0.7059 ± 0.0021 |
| DEFQRLTNGIPY [STT4 C-terminal 12 aa] | 0.695 ± 0.024 | 0.6923 ± 0.0061 |
| NRVPKWMKLSKK [UBX4 C-terminal 12 aa] | 0.676 ± 0.012 | 0.679 ± 0.027 |
| ETSITNDNESQQ [PPZ1 C-terminal 12 aa] | 0.695 ± 0.0074 | 0.701 ± 0.04 |
| IIRPLVLKNFII [YDR371C-A C-terminal 12 aa] | 0.5029 ± 0.0013 | 0.116 ± 0.0054 |
| NIIGLLSNDEEH [CBP2 C-terminal 12 aa] | 0.6944 ± 0.0063 | 0.6869 ± 0.0018 |
| KPGTIIHFSTNR [ASK1 C-terminal 12 aa] | 0.71325 ± 0.00059 | 0.691 ± 0.034 |

| Sequence | protein stability index [1] | protein stability index (genetic background: wild type) |
| --- | --- | --- |
| FWEKRWKDGWDE [ERV1 C-terminal 12 aa] | 0.756 ± 0.053 | 0.681 ± 0.031 |
| NGWHELALPQSR [SWM1 C-terminal 12 aa] | 0.74 ± 0.0028 | 0.705 ± 0.021 |
| KQEQESLGSNSK [DAD3 C-terminal 12 aa] | 0.666 ± 0.012 | 0.661 ± 0.035 |
| PDCTVCSNSNSN [UBA3 C-terminal 12 aa] | 0.705 ± 0.0088 | 0.677 ± 0.047 |
| FTIYEKVLVMLA [CTP1 C-terminal 12 aa] | 0.286 ± 0.017 | 0.20202 ± 3.5e-06 |
| SVTFFIQDILCL [YPL073C C-terminal 12 aa] | 0.389 ± 0.019 | 0.407 ± 0.015 |
| EIIRVGPQESII [MRP49 C-terminal 12 aa] | 0.723 ± 0.019 | 0.749 ± 0.034 |
| ARLDKSLTFEDQ [RIM20 C-terminal 12 aa] | 0.6983 ± 0.0055 | 0.699 ± 0.038 |
| EVTAKTSLVSPK [ROX1 C-terminal 12 aa] | 0.7021 ± 0.004 | 0.676 ± 0.018 |
| QRTRRRMSLYKL [TOS3 C-terminal 12 aa] | 0.807 ± 0.036 | 0.853 ± 0.03 |
| TRGPRRKLPTRV [BSP1 C-terminal 12 aa] | 0.6863 ± 0.0066 | 0.672 ± 0.06 |
| VEAVKRVLTKKF [IMG2 C-terminal 12 aa] | 0.6883 ± 0.0047 | 0.694 ± 0.012 |
| SDVAKQLAALGY [RPL16A C-terminal 12 aa] | 0.698 ± 0.024 | 0.677 ± 0.012 |
| RHELQALQAEIN [END3 C-terminal 12 aa] | 0.715 ± 0.018 | 0.614 ± 0.018 |
| HSDSADTHTHKH [MMT2 C-terminal 12 aa] | 0.693 ± 0.025 | 0.696 ± 0.029 |
| CPHHNPDNQQFF [BIK1 C-terminal 12 aa] | 0.702 ± 0.025 | 0.702 ± 0.078 |
| NTVELLNIPLTS [YLR345W C-terminal 12 aa] | 0.6555 ± 0.0055 | 0.649 ± 0.0043 |
| ISGGTFGFRSEI [HBT1 C-terminal 12 aa] | 0.696 ± 0.02 | 0.7165 ± 0.0021 |
| SAIEEGISLNKG [TEL2 C-terminal 12 aa] | 0.7058 ± 0.0048 | 0.701 ± 0.012 |
| ELERDITISREY [MIP1 C-terminal 12 aa] | 0.701 ± 0.028 | 0.698 ± 0.068 |
| SKGSPINTQYVF [AGA2 C-terminal 12 aa] | 0.731 ± 0.02 | 0.732 ± 0.056 |

| Sequence | protein stability index [1] | protein stability index (genetic background: wild type) |
| --- | --- | --- |
| MSNSNSVCCTLM [STE18 C-terminal 12 aa] | 0.736 ± 0.01 | 0.7027 ± 0.0034 |
| LKTTPCLTHWYN [YIR030W-A C-terminal 12 aa] | 0.699 ± 0.022 | 0.663 ± 0.033 |
| ANFNDFYDAFYN [RSC30 C-terminal 12 aa] | 0.732 ± 0.019 | 0.707 ± 0.026 |
| FGSSRSEWYLAL [YPL114W C-terminal 12 aa] | 0.701 ± 0.029 | 0.709 ± 0.031 |
| LKFLEEKFPHDK [AIM17 C-terminal 12 aa] | 0.708 ± 0.02 | 0.691 ± 0.03 |
| IFQEAIDKTVEI [YML082W C-terminal 12 aa] | 0.708 ± 0.0011 | 0.706 ± 0.029 |
| IAFPQRKYAIKA [RPL35A C-terminal 12 aa] | 0.299 ± 0.024 | 0.33 ± 0.01 |
| SLRIEAIKKGFV [SPS1 C-terminal 12 aa] | 0.727 ± 0.048 | 0.675 ± 0.029 |
| GETSSSSAVAEV [AQY1 C-terminal 12 aa] | 0.6874 ± 0.0045 | 0.659 ± 0.03 |
| SAIADDDEEHKE [LHP1 C-terminal 12 aa] | 0.7103 ± 0.0044 | 0.678 ± 0.051 |
| NEALVKTTKQKL [LPX1 C-terminal 12 aa] | 0.703 ± 0.013 | 0.704 ± 0.018 |
| LPQRSIPCAIYP [YCR108C C-terminal 12 aa] | 0.687 ± 0.012 | 0.7045 ± 0.0036 |
| FFHRISHFLESA [YLR299C-A C-terminal 12 aa] | 0.704 ± 0.018 | 0.695 ± 0.025 |
| NSDTIARIATVM [DAS1 C-terminal 12 aa] | 0.685 ± 0.011 | 0.595 ± 0.0036 |
| LASVRLSWYSII [YGR204C-A C-terminal 12 aa] | 0.71 ± 0.021 | 0.277 ± 0.014 |
| KLLLNELRSFCV [PCL10 C-terminal 12 aa] | 0.72 ± 0.009 | 0.694 ± 0.028 |
| AHQKEILHSVSN [YML6 C-terminal 12 aa] | 0.695 ± 0.016 | 0.726 ± 0.034 |
| RVVDLVEHVAKA [TDH2 C-terminal 12 aa] | 0.705 ± 0.026 | 0.6748 ± 0.0044 |
| ELLRLHNCHLPV [RMA1 C-terminal 12 aa] | 0.713 ± 0.018 | 0.7 ± 0.0081 |
| TEDKNKALESAQ [VPS60 C-terminal 12 aa] | 0.702 ± 0.013 | 0.6706 ± 0.0056 |
| AITLAWLAHALT [YHL037C C-terminal 12 aa] | 0.4375 ± 0.0012 | 0.39 ± 0.011 |

| Sequence | protein stability index [1] | protein stability index (genetic background: wild type) |
| --- | --- | --- |
| GKLPSSLLSYFV [ZUO1 C-terminal 12 aa] | 0.7219 ± 0.0065 | 0.673 ± 0.032 |
| VWADILNKLGKD [ADK1 C-terminal 12 aa] | 0.704 ± 0.013 | 0.719 ± 0.025 |
| IVLPENIPLLYK [YJL195C C-terminal 12 aa] | 0.694 ± 0.037 | 0.672 ± 0.023 |
| LSSKKQTVMDKE [POL5 C-terminal 12 aa] | 0.6463 ± 0.0045 | 0.749 ± 0.051 |
| KQPDLQERVTQE [MHF1 C-terminal 12 aa] | 0.666 ± 0.045 | 0.685 ± 0.14 |
| RWELVRESWREL [HSV2 C-terminal 12 aa] | 0.703 ± 0.03 | 0.786 ± 0.086 |
| NIATIASERSRP [YPL102C C-terminal 12 aa] | 0.723 ± 0.046 | 0.683 ± 0.007 |
| YAELAERKKQEN [COX9 C-terminal 12 aa] | 0.6916 ± 0.0031 | 0.6914 ± 0.0022 |
| SIFIASLLLAIV [FLO10 C-terminal 12 aa] | 0.226 ± 0.0053 | 0.237 ± 0.0032 |
| KHKNILPFNFTK [YEL074W C-terminal 12 aa] | 0.703 ± 0.037 | 0.741 ± 0.0086 |
| KFDEKTATLVDE [YDL144C C-terminal 12 aa] | 0.692 ± 0.027 | 0.675 ± 0.022 |
| IELIQNMNKESF [YOR131C C-terminal 12 aa] | 0.696 ± 0.03 | 0.692 ± 0.015 |
| ESIVDFVERHED [IMO32 C-terminal 12 aa] | 0.714 ± 0.017 | 0.691 ± 0.019 |
| MDPMSPLNKDVS [YMR196W C-terminal 12 aa] | 0.692 ± 0.0081 | 0.73 ± 0.05 |
| KAFVIGAIALVA [YMR317W C-terminal 12 aa] | 0.331 ± 0.01 | 0.341 ± 0.0043 |
| CDEVVEHVKASA [PCM1 C-terminal 12 aa] | 0.708 ± 0.0093 | 0.687 ± 0.017 |
| KWFRENDGKKAN [TSC10 C-terminal 12 aa] | 0.7006 ± 0.0047 | 0.6772 ± 0.0044 |
| KKRKFGKVRIKN [NEJ1 C-terminal 12 aa] | 0.706 ± 0.047 | 0.698 ± 0.0074 |
| GSEHSDPFSTFY [DBF20 C-terminal 12 aa] | 0.748 ± 0.0093 | 0.7245 ± 0.0011 |
